From PMC4482739, “MamA as a Model Protein for Structure-Based Insight into the Evolutionary Origins of Magnetotactic Bacteria” (PLoS ONE, 2015)
“And” between values parts separate entries of the source, which are not always exact repeats. Equal values may be shown once.

What was measured:
[1] = target: MamAΔ41 from Desulfovibrio magneticus RS-1 (wild type) (Desulfovibrio magneticus RS-1); assay: SEC; Superdex 200, buffer E (10 mM HEPES pH 7.5, 0.5 M NaCl, 5 mM βME); sizes from elution volumes against a standard calibration curve
[2] = target: MamAΔ41 RS-1 TM (triple mutant E140A, K141A, E143A) (Desulfovibrio magneticus RS-1); assay: as above
[3] = target: MamAΔ41 RS-1 TM (triple mutant E140A, K141A, E143A) (Desulfovibrio magneticus RS-1); assay: crystal structure; X-ray, 2.88 Å, space group I4; crystals from 0.1 M Tris pH 8.1, 0.75 M sodium potassium tartrate, 0.5% PEG monomethyl ether 5000; six monomers as two trimeric rings in the asymmetric unit
[4] = target: the molecule itself; assay: SEC; Superdex 200; sizes from elution volumes against protein markers; buffer for these proteins not stated

## MamAΔ41 from Desulfovibrio magneticus RS-1 (wild type) (domain or fragment)
[1]
  stoichiometry N: 8

## MamAΔ41 RS-1 TM (triple mutant E140A, K141A, E143A) (domain or fragment)
[2]
  stoichiometry N: 13 and 8
[3]
  stoichiometry N: 3

B1: MamAΔ41 from Magnetospirillum gryphiswaldense MSR-1 (domain or fragment, UniProt Q93DY9 42-217, looked up)
chain: DDIRQVYYRDKGISHAKAGRYSEAVVMLEQVYDADAFDVEVALHLGIAYVKTGAVDRGTELLERSIADAPDNIKVATVLGLTYVQVQKYDLAVPLLVKVAEANPVNFNVRFRLGVALDNLGRFDEAIDSFKIALGLRPNEGKVHRAIAYSYEQMGSHEEALPHFKKANELDERSAV
notes: MamA of Magnetospirillum gryphiswaldense MSR-1, Δ41 mutant (the putative N-terminal TPR repeat removed); Trimer by SEC; also called MamAΔ41_(MSR-1)
[4]
  stoichiometry N: 3
